Experimental data taken from patent US20100129344A1, “MEDICAL USES AND THERAPIES BASED UPON THE ACTION OF AZUROCIDIN ON IGFBP-1” (priority 2005, published 2010).
Marks after values point to notes of the source that are not given here.

Legend:
IGF-II = IGF-II (Homo sapiens, UniProt P01344); assay: BIAcore analysis over IGF-II biosensor surface; assay type: binding; design: IGF-I, IGF-II and des(1-3)IGF-I were immobilized on the sensor chip by amine coupling; conditions: for kd (rate of dissociation, over 261-360 s) / ks (rate of association, over 21-120 s): mean ± SEM
Procedure: (§1) Recombinant pIGFBP-1 was analyzed across IGF-I (A, C) and IGF-II (B, D) biosensor surfaces. A concentration range of 50, 100, 200, 400 nM was analyzed at a flow rate of 10 μl/min. A,B: Mean sensorgrams for 400 nM IGFBP-1 (intact, n=3) and 200 nM IGFBP-1, intact (0 h, n=4) and after 2-h (n=5) and 4-h (n=3) incubations with partially purified azurocidin in a protease:substrate ratio of 1:3 500 for 2 h at 37 C. C,D: The rate of association (ks), the absolute value of the slope (dRU/dt versus RU) over the linear initial association phase (21-120 s), is shown for pIGFBP-1, intact (closed circles), and after incubation with partially purified azurocidin for 2 h at 37 C (open circles); and
(§2) Instrument and reagents (buffers, chemicals for activating and deactivated) were purchased from BIAcore (Uppsala, Sweden). IGF-I, IGF-II and des(1-3)IGF-I were immobilized on the sensor chip by amine coupling and deactivated with 0.1M ethanolamine. A reference flow cell was also prepared to correct for background and bulk refractive index contribution. After equilibration buffer to achieve a stable baseline, binding experiments was at 22 C in 2 separate experiments with the samples injected in random order. 40 μl of each sample was injected over the sensor surface at a rate of 10 μl/min (association period), followed by a 6 min wash with buffer (dissociation period). The sensor surface was regenerated with 20 μl of 100 mM HCl and washed for 6 min before the next sample. We used a 1:1 Langmuir binding interaction model for kinetic analysis using the BIAcore software and GraphPad Prism (GraphPad Software Inc, San Diego, Calif.).

azurocidin = target: T1, azurocidin (Homo sapiens, UniProt P20160); assay: Stability of IGFBP-1 fragments generated in the presence of azurocidin; assay type: biochemical
T1 construct: from tissue
T1 sequence (P20160 27-248): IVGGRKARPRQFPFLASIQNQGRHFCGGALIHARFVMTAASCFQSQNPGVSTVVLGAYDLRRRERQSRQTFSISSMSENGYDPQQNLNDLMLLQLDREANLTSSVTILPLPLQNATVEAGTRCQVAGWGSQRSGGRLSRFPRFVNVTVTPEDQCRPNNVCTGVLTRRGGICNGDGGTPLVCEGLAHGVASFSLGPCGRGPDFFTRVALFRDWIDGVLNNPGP

IGF-I [1] = target: T2, IGF-I (Homo sapiens, UniProt P05019); assay: BIAcore analysis over IGF-I biosensor surface; assay type: binding; design: purchased Kabi Pharmacia (Sweden), donated; conditions: for kd (rate of dissociation, over 261-360 s) / ks (rate of association, over 21-120 s): mean ± SEM; for predicted maximum response for interaction with IGF-I: based on initial rate of association (21-120 s), proteolysed = 2-h time point
Procedure: as §1, §2
Target sequence in this assay (P05019 49-118 limits assumed): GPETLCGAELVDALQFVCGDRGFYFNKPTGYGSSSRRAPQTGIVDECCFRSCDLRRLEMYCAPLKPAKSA

[2] = test system: primary human skeletal myotubes; assay: 2-Deoxyglucose transport (glucose uptake); assay type: cell-based; conditions: for effect on glucose uptake alone: absence of exogenous IGF-II, 80 ng/ml
Procedure: Primary human skeletal myotubes were incubated under serum-free conditions for 24 h. Glucose uptake was determined as described in the Methods. The results are the mean±SEM of four experiments using cells from different individuals each with 3 replicates; and are expressed as the percentage of uptake in the absence of IGF-II or IGFBP-1 for each. The effect of IGF-II is shown in the hatched bars. The effect of pIGFBP-1 on stimulation of glucose uptake by 10 ng/ml IGF-II was analyzed by 2-way ANOVA for each of the 20 ng/ml and 80 ng/ml concentrations; *, P<0.01, **, P<0.001, compared to no IGF-II; ††, P<0.001, compared to no IGFBP-1 or intact IGFBP-1.
Human skeletal muscle cells were isolated, with approval from the local Ethics Committee, from the muscle biopsies by trypsin digestion and were grown to confluent myoblasts and differentiated into myotubes as previously described in detail (Bouzakri et al, Diabetes, 52, 1319-1325, 2003). Muscle from 4 different subjects were individually minced before being incubated for 30 min in 5 ml of trypsin-EDTA (Invitrogen, Carlsbad, Calif.) at 37° C. under agitation. After being centrifuged (150 g), the pellet was rinsed several times in PBS. Cells were first preplated for 1 h to eliminate rapidly adherent fibroblasts. The remaining cells were then cultured in a growth medium composed of HAM F-10 supplemented with 20% fetal bovine serum (FBS; Invitrogen Stockholm, Sweden), and 1% antibiotics (Invitrogen Stockholm, Sweden). Cells were plated in 6 wells plates and cultured in growth medium at 37° C. until confluence. Differentiation into myotubes was induced by changing the medium to Dulbecco's modified Eagle's medium supplemented with 2% FBS, and 1% antibiotics.
2-Deoxyglucose transport: Glucose uptake was performed as previously described for primary human muscle cells (Bouzakri et al, Diabetologia, 47, 1314-1323, 2004). After 24-h serum starvation, myotubes were pre-incubated with or without IGF-II (10 ng/ml) and IGF-II+IGFBP-1 (intact or cleaved at 20 or 80 ng/ml) for 90 min. IGF-II and IGFBP-1 were mixed 30 min before the experiments. Cells were then washed four times with pre-warmed buffer (150 mmol/l NaCl, […] KCl, 1.2 mmol/l MgSO4, 1.2 mmol/l CaCL2, 2.5 mmol/l NaH2PO4, 10 mmol/l HEPES, pH 7.4) and glucose uptake was measured for 15 min using [3H]2-deoxyglucose (50 μmol/l, 14,800 Bq/well). Results were expressed as the percentage of glucose uptake in the absence of IGF-II or IGFBP-1.
(§3) Statistical analyses. The effect of IGF-II and IGFBP-1 in muscle cell culture was analyzed by two-way ANOVA. Where significant differences were observed, comparisons were made using the Tukey test. In the study using MCF-7 breast cancer cells the Wolcoxon Matched Pairs test was used. Statistical significance was set at P<0.05.

[3] = test system: MCF-7 human breast cancer cells; assay: 3H-Thymidine incorporation; assay type: cell-based
Procedure: Cell studies. MCF-7 human breast cancer cells were maintained in MEM alpha ribonucleic acid-free medium supplemented with 10% foetal bovine serum, 50 Unit/ml penicillin sodium, 50 μg/ml streptomycin sulfate and 2 mM L-glutamine at 37C in 5% CO2 humidified environment.
3H-Thymidine incorporation: Experiments were carried out in 48-well plates, at 70% confluence. After a 20-h incubation in serum-free medium supplemented with 0.1% BSA, the experimental conditions were added for a further 24 h, with ^3H-thymidine (1 μCi/ml) added for the last 4 h. Cells were then washed with ice-cold 0.9% NaCl three times and incubated with ice-cold 5% TCA for 15 min at 22 C. The fixed nucleotides were solubilized in 0.1M NaOH at 22 C and subjected to liquid scintillation counting.
as §3

des(1-3)IGF-I = target: T3, des(1-3)IGF-I (Homo sapiens, UniProt P05019); assay: BIAcore analysis over des(1-3)IGF-I biosensor surface; assay type: binding; conditions: 200 nM, 2-h and 4-h incubations with partially purified azurocidin
T3 construct: IGF-I, IGF-II and des(1-3)IGF-I were immobilized on the sensor chip by amine coupling; purchased GroPep (Adelaide, Australia)
Procedure: Recombinant pIGFBP-1 was analyzed across a des(1-3) IGF-I biosensor surfaces with a concentration range of 50, 100, 200, 400 nM, at a flow rate of 10 μl/min. The mean sensorgrams are shown for 400 nM IGFBP-1 (intact, n=3) and 200 nM IGFBP-1, intact (0 h, n=4) and after 2-h (n=5) and 4-h (n=3) incubations with partially purified azurocidin in a protease:substrate ratio of 1:3 500 for 2 h at 37 C.
as §2

IGF-I [4] = target: T2, IGF-I; conditions: liver-secreted phosphoprotein, after dephosphorylation; cited from earlier work
Target sequence in this assay (P05019 49-118): as the sequence (P05019 49-118 limits assumed) above

[5] = IGFBP-1 200 nM, proteolysis 2 h
[6] = IGFBP-1 200 nM, proteolysis 2 h by azurocidin
[7] = IGFBP-1 200 nM, proteolysis 4 h
[8] = IGFBP-1 200 nM, proteolysis 4 h by azurocidin
[9] = IGF-I surface, IGFBP-1 200 nM, proteolysis 2 h by azurocidin
[10] = IGF-I surface, IGFBP-1 200 nM, proteolysis 4 h by azurocidin
[11] = IGF-II 10 ng/ml + IGFBP-1 20 or 80 ng/ml
[12] = IGFBP-1 200 nM, proteolysis 0 h
[13] = IGFBP-1 400 nM, proteolysis 0 h
[14] = IGF-I surface, IGFBP-1 200 nM, proteolysis 0 h
[15] = IGF-I surface, IGFBP-1 400 nM, proteolysis 0 h

Sequence of IGF-II (P01344 25-91 limits assumed): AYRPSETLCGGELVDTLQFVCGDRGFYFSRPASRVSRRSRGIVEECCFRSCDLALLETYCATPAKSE
T3 sequence (P05019 52-118): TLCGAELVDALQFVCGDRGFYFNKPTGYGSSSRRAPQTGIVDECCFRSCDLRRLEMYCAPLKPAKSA

B1: proteolysed IGFBP-1: phosphorylated IGFBP-1 after incubation with partially purified azurocidin (mixture of N- and C-terminal fragments) (protein)
chain 1: APWQCAPCSAEKLALCPPVSASCSEVTRSAGCGCCPMCALPLGAACGVATARCARGLSCRALPGEQQPLHALTRGQGACVQESDASAPHAAEAGSPESPESTEITEEELLDNFHLMAPSEEDHSILWDAI
chain 2: STYDGSKALHVTNIKKWKEPCRIELYRVVESLAKAQETSGEEISKFYLPNCNKNGFYHSRQCETSMDGEAGLCWCVYPWNGKRIPGSPEIRGDPNCQIYFNVQN
kd rel to IGF-I (IGF-II; [5]): 2.51^‡ | ks rel to IGF-I (IGF-II; [5]): 0.89 | kd (rate of dissociation, over 261-360 s) (IGF-II; [6]): 15.99 ± 0.19 ×10^−4 s^−1 | ks (rate of association, over 21-120 s) (IGF-II; [6]): 15.43 ± 0.58 ×10^−3 s^−1 | kd rel to IGF-I (IGF-II; [7]): 2.39^‡ | ks rel to IGF-I (IGF-II; [7]): 1.01 | rel ks (relative to 200 nM intact pIGFBP-1) (IGF-II; [7]): 2.86*^† | kd (rate of dissociation, over 261-360 s) (IGF-II; [8]): 27.17 ± 0.12 ×10^−4 s^−1 | ks (rate of association, over 21-120 s) (IGF-II; [8]): 12.80 ± 0.08 ×10^−3 s^−1 | further degradation of IGFBP-1 fragments (azurocidin; 2-h incubation at 45 C): no further degradation | further degradation of IGFBP-1 fragments (azurocidin; 24-h incubation at 37 C): no further degradation | kd (rate of dissociation, over 261-360 s) (IGF-I [1]; [9]): 6.40 ± 0.25 ×10^−4 s^−1 | ks (rate of association, over 21-120 s) (IGF-I [1]; [9]): 17.26 ± 0.49 ×10^−3 s^−1 | rel ks (relative to 200 nM intact pIGFBP-1) (IGF-I [1]; IGF-I surface, IGFBP-1 200 nM, proteolysis 4 h): 2.96*^† | kd (rate of dissociation, over 261-360 s) (IGF-I [1]; [10]): 11.36 ± 0.05 ×10^−4 s^−1 | ks (rate of association, over 21-120 s) (IGF-I [1]; [10]): 12.69 ± 0.08 ×10^−3 s^−1 | predicted maximum response for interaction with IGF-I (IGF-I [1]): 1156±16 RU | effect on IGF-II-stimulated glucose uptake [2, 11]: inhibited in a dose-response manner | inhibitory effect on IGF-II-stimulated glucose uptake compared with intact IGFBP-1 ([2]; IGF-II 10 ng/ml + IGFBP-1 20 or 80 ng/ml, P<0.001): significantly less | effect on glucose uptake alone [2]: stimulated glucose uptake | IGF-II-stimulated 3H-thymidine incorporation after addition of IGFBP-1 ([3]; IGF-II 10 ng/ml + pIGFBP-1 90 ng/ml, 6 experiments): no inhibition | effect of proteolysis on rate of dissociation from des(1-3)IGF-I (des(1-3)IGF-I): clearly increase

B2: intact pIGFBP-1: recombinant human phosphorylated IGFBP-1, intact (protein)
chain: APWQCAPCSAEKLALCPPVSASCSEVTRSAGCGCCPMCALPLGAACGVATARCARGLSCRALPGEQQPLHALTRGQGACVQESDASAPHAAEAGSPESPESTEITEEELLDNFHLMAPSEEDHSILWDAISTYDGSKALHVTNIKKWKEPCRIELYRVVESLAKAQETSGEEISKFYLPNCNKNGFYHSRQCETSMDGEAGLCWCVYPWNGKRIPGSPEIRGDPNCQIYFNVQN
kd (rate of dissociation, over 261-360 s) (IGF-II; [12]): 3.48 ± 0.40 ×10^−4 s^−1 | ks (rate of association, over 21-120 s) (IGF-II; [12]): 4.47 ± 0.78 ×10^−3 s^−1 | kd (rate of dissociation, over 261-360 s) (IGF-II; [13]): 3.37 ± 0.02 ×10^−4 s^−1 | ks (rate of association, over 21-120 s) (IGF-II; [13]): 8.30 ± 0.13 ×10^−3 s^−1 | reduction of affinity for IGF-I by dephosphorylation (IGF-I [4]): six fold | kd (rate of dissociation, over 261-360 s) (IGF-I [1]; [14]): 1.46 ± 0.19 ×10^−4 s^−1 | ks (rate of association, over 21-120 s) (IGF-I [1]; [14]): 4.29 ± 0.46 ×10^−3 s^−1 | kd (rate of dissociation, over 261-360 s) (IGF-I [1]; [15]): 1.45 ± 0.02 ×10^−4 s^−1 | ks (rate of association, over 21-120 s) (IGF-I [1]; [15]): 8.21 ± 0.14 ×10^−3 s^−1 | predicted maximum response for interaction with IGF-I (IGF-I [1]): 908±79 RU | effect on IGF-II-stimulated glucose uptake [2, 11]: inhibited in a dose-response manner | effect on glucose uptake alone [2]: no effect | inhibition of 3H-thymidine incorporation by pIGFBP-1 alone ([3]; without IGF-II, 4 experiments): 13-33%
